Target: tobacco ethylene-responsive transcription factor ERF4 (tobacco) (UniProt Q40478)
Test: cell-based or functional assay

tobacco ethylene-responsive transcription factor ERF4 (tobacco), sequence (Q40478 whole entry): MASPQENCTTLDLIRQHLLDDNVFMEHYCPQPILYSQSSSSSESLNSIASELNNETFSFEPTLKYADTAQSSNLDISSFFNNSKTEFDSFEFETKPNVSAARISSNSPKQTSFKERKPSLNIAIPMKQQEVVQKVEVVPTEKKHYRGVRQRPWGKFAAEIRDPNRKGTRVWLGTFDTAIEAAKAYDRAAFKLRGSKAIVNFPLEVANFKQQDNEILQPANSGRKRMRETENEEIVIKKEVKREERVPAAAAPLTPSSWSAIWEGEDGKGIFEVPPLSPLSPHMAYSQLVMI

Question: Which GUS activity (pERE-GUS reporter, transient assay in tobacco leaves) does the source give for “Multiprotein Bridging Factor 1 of Oryza sativa (oMBF1)” here?
Answer: 5.5 fold

From patent US20050132443A1
